Data set [1] deals with GLUT1 (glucose transporter band 4.5) (Homo sapiens) (UniProt P11166). The data set can be described thus: ELONA. Particulars: ELONA: protein coated at 10 nM in carbonate/bicarbonate pH 9.6; aptamer (1.5625 nM-5 uM, 95 C 5 min then snap-cooled) in 1x DPBS, 0.55 mM MgCl2, 0.05% ….
For data set [2], the target named is T1, Glycophorin A (Homo sapiens, UniProt P02724 20-91). Briefly: ELONA; one-site fit, R2 0.857; ELONA: protein coated at 10 nM in carbonate/bicarbonate pH 9.6; aptamer (1.5625 nM-5 uM, 95 C 5 min then snap-cooled) in 1x DPBS, 0.55 mM MgCl2, 0.05% Tween-20, 1% BSA, 1 h, room temperature; SA-HRP/TMB read-out at 450 nm. The settings on record: protein: recombinant; label: 5' biotin; hairpin, 3 loops predicted by Mfold; CD indicates parallel G4.

Data set [3] concerns the target T1, Glycophorin A. The data set can be described thus: ELONA; one-site fit, R2 0.948; text says low micromolar; ELONA: protein coated at 10 nM in carbonate/bicarbonate pH 9.6; aptamer (1.5625 nM-5 uM, 95 C 5 min then snap-cooled) in 1x DPBS, 0.55 mM MgCl2, 0.05% Tween-20, 1% BSA, 1 h, room temperature; SA-HRP/TMB read-out at 450 nm. The settings on record: protein: recombinant; label: 5' biotin; hairpin, 2 loops predicted by Mfold; CD B-DNA-like.

For data set [4], the target named is T1, Glycophorin A. The data set can be described thus: ELONA; one-site fit, R2 0.716; text says low micromolar; ELONA: protein coated at 10 nM in carbonate/bicarbonate pH 9.6; aptamer (1.5625 nM-5 uM, 95 C 5 min then snap-cooled) in 1x DPBS, 0.55 mM MgCl2, 0.05% Tween-20, 1% BSA, 1 h, room temperature; SA-HRP/TMB read-out at 450 nm. The settings on record: protein: recombinant; label: 5' biotin; hairpin, 2 loops predicted by Mfold; CD indicates parallel G4.

Chain of GLUT1 (glucose transporter band 4.5) (Homo sapiens) (P11166 whole entry): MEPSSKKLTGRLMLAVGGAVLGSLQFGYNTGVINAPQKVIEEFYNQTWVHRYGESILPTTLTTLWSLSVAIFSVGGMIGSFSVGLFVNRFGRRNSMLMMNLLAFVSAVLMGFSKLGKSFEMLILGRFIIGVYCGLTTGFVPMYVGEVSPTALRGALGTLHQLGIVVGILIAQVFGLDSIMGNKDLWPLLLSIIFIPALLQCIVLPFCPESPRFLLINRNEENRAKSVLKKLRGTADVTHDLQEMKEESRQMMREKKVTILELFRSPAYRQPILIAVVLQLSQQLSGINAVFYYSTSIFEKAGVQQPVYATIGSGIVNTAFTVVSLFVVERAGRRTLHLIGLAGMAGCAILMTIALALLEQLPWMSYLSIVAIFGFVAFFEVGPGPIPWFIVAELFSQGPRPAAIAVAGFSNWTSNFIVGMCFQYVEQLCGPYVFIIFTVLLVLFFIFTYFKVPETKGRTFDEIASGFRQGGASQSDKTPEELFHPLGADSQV

By Kd is commonly meant the constant that tells how readily two partners part at equilibrium. Molecule “ATCCAGAGTGACGCAGCACGGGTTGGGGCTGGTTGTGTGTTGTTTTTTTGGCTGTATGTGGACACGGTGGCTTAGT [N1 aptamer (76 nt)]” yielded a Kd in data set [1] of 59.5 nM.
The same measure, in the same setting: to “CTCCTCTGACTGTAACCACGTCGCGGGTAGGGGGAGGGCCGAGGAGGCTGTAGGTGGGTGGCATAGGTAGTCCAGAAGCC [BB1 aptamer (80 nt)]” belongs 41.6 nM.
Same read-out and setting: to “ATCCAGAGTGACGCAGCATGCGGGGAGAGGAGTGTGGGATGGGTTTGTTTGTTTAGGGTGGACACGGTGGCTTAGT [N4 aptamer (76 nt)]” belongs 37.6 nM.

B1: BB1 aptamer (80 nt) (structured_DNA)
DNA: CTCCTCTGACTGTAACCACGTCGCGGGTAGGGGGAGGGCCGAGGAGGCTGTAGGTGGGTGGCATAGGTAGTCCAGAAGCC
As to B1, in data set [2], the Kd was 25 ± 10.3 nM.

B2: N1 aptamer (76 nt) (ssDNA)
DNA: ATCCAGAGTGACGCAGCACGGGTTGGGGCTGGTTGTGTGTTGTTTTTTTGGCTGTATGTGGACACGGTGGCTTAGT
On to B2, for which the dissociation constant (Kd) in data set [3] is 356 ± 95.6 nM.

B3: N4 aptamer (76 nt) (structured_DNA)
DNA: ATCCAGAGTGACGCAGCATGCGGGGAGAGGAGTGTGGGATGGGTTTGTTTGTTTAGGGTGGACACGGTGGCTTAGT
As to B3, the Kd in data set [4] was 354 ± 227 nM.

The values are drawn from paper PMC12211734, “In silico and in vitro characterisation and affinity maturation of human red blood cell binding aptamers†”.
